This is an account of results in the supplement of paper PMC7877785.

± gives the uncertainty stated by the source.

The series is described as follows: self-splicing fitness, log relative to wild type (ln ratio); higher = more splicing; Tetrahymena group I intron in knt gene, E. coli kanamycin selection, DiMSum; sequences stand for … in CUCUCU…GGAGGGAAAAGUUAUCAGGCAUGCACCUGGUAGCUAGUCUUUAAACCAAUAGAUUGCAUCGGUUUAAAAGGCAAGACCGUCAAAUUGCGGGAAAGGGGUCAACAGCCGUUCAGUACCAAGUCUCAGGGGAAACUUUGAGAUGGCCUUGCAAAGGGUAUGGUAAUAAGCUGACGGACAUGGUCCUAACCACGCAGCCAAGUCCUAAGUCAACAGAUCUUCUGUUGAUAUGGAUGCAGUUCACAGACUAAAUGUCGGUCGGGGAAGAUGUAUUCUUCUCAUAAGAUAUAGUCGGACCUCUCCUUAAUGGGAGCUAGCGGAUGAAGUGAUGCAACACUGGAGCCGCUGGGAACUAAUUUGUAUGCGAAAGUAUAUUGAUUAGUUUUGGAGUACUCGUGGUCG
In outline: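 The eight P1ex-region nucleotides of an intron in the knt kanamycin-resistance gene on pET-22b(+) were all randomised and the library put into E. coli BL21(DE3). Six replicate transformations were grown overnight at 37°C or 30°C on LB agar with or without 25 μg/mL kanamycin, together with 100 μg/mL carbenicillin, 50 μM IPTG and 0.2% rhamnose. Colonies were pooled and amplicon-sequenced on an Illumina HiSeq 2500. Fitness from DiMSum is the error-weighted combination of wild-type-normalised replicate fold changes, kanamycin over none.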

As for GGGAAGCAAUAUUACGGAAG, the “self-splicing fitness (ln)” value was -0.00595 ± 0.22 (30 °C) and -1.47 ± 0.39 (37 °C). For UAGUAGCAAUAUUACGAGCA, in that order: -1.07 ± 0.12 and -0.0288 ± 0.12.

Consider GACAAGCAAUAUUACGGCGA, for which the “self-splicing fitness (ln)” value is, setting by setting: (30 °C) -0.213 ± 0.074; (37 °C) 0.21 ± 0.085. For CAAUAGCAAUAUUACGUGAU, in that order: -3.98 ± 0.14 and -2.5 ± 0.12. For AAGGAGCAAUAUUACGUCUU, in that order: -1.9 ± 0.09 and -1.14 ± 0.13. For AACUAGCAAUAUUACGGGCA, the “self-splicing fitness (ln)” value is -0.872 ± 0.079 (30 °C) and -0.13 ± 0.088 (37 °C). Regarding CGAGAGCAAUAUUACGCGUA, the “self-splicing fitness (ln)” value reads like this: (30 °C) -3.31 ± 0.19; (37 °C) -2.67 ± 0.29. The matching figures for GUCAAGCAAUAUUACGCAAU: -2 ± 0.061 and -1.32 ± 0.076.

In the case of UCAAAGCAAUAUUACGAGUA, the “self-splicing fitness (ln)” value is -2.07 ± 0.083 (30 °C) and -0.678 ± 0.072 (37 °C). For ACUAAGCAAUAUUACGGCAU, in that order: -0.539 ± 0.062 and -0.563 ± 0.09. For AAAUAGCAAUAUUACGCUAA, in that order: -2.19 ± 0.21 and -1.52 ± 0.2. Regarding AAAGAGCAAUAUUACGAGCC, the “self-splicing fitness (ln)” value (30 °C) is -2.96 ± 0.35.

For the sequence ACUAAGCAAUAUUACGGUCC, the “self-splicing fitness (ln)” value was -2.35 ± 0.2 (30 °C) and -1.04 ± 0.23 (37 °C). On to GAUGAGCAAUAUUACGUCUG, for which the “self-splicing fitness (ln)” value (30 °C) is -2.66 ± 0.19 and the “self-splicing fitness (ln)” value (37 °C) is -2.96 ± 0.28. The matching figures for ACUGAGCAAUAUUACGUAAG: -2.02 ± 0.086 and -0.834 ± 0.1. On to CACGAGCAAUAUUACGGUAA, for which the “self-splicing fitness (ln)” value (37 °C) was -2.37 ± 0.27. Regarding UUCGAGCAAUAUUACGGUAA, the “self-splicing fitness (ln)” value by setting is: (30 °C) -1.85 ± 0.25; (37 °C) -1.55 ± 0.19. Turning to UUCAAGCAAUAUUACGGAGC, the “self-splicing fitness (ln)” value (30 °C) is -2.66 ± 0.28 and the “self-splicing fitness (ln)” value (37 °C) was -1.8 ± 0.23. The matching figures for CGUCAGCAAUAUUACGGGUG: -1.9 ± 0.091 and -0.977 ± 0.11. With AGUGAGCAAUAUUACGCGUU, the “self-splicing fitness (ln)” value was -3.04 ± 0.19 (30 °C) and -2.18 ± 0.18 (37 °C). For GAUCAGCAAUAUUACGAGCA, in that order: -1.26 ± 0.1 and -0.318 ± 0.1. As to GUACAGCAAUAUUACGAGAC, the “self-splicing fitness (ln)” value is -2.09 ± 0.24 (30 °C) and -2.5 ± 0.28 (37 °C).

Consider CGACAGCAAUAUUACGUGCC, for which the “self-splicing fitness (ln)” value (30 °C) was -1.11 ± 0.12 and the “self-splicing fitness (ln)” value (37 °C) is -0.684 ± 0.14.

In the case of AGAGAGCAAUAUUACGGCCU, the “self-splicing fitness (ln)” value is, setting by setting: (30 °C) -0.408 ± 0.3; (37 °C) -2.58 ± 0.5. Consider UAGCAGCAAUAUUACGUCUU, for which the “self-splicing fitness (ln)” value was -1.07 ± 0.071 (30 °C) and -0.289 ± 0.085 (37 °C). For GCUAAGCAAUAUUACGCAAA, in that order: -2.6 ± 0.26 and -0.986 ± 0.17.

Turning to AGUAAGCAAUAUUACGUCUA, the “self-splicing fitness (ln)” value was -0.96 ± 0.16 (30 °C) and -0.0188 ± 0.15 (37 °C). For the sequence GAUGAGCAAUAUUACGUGCC, the “self-splicing fitness (ln)” value is -2.92 ± 0.23 (30 °C) and -2.3 ± 0.42 (37 °C). Consider ACCCAGCAAUAUUACGCAGG, for which the “self-splicing fitness (ln)” value runs as follows: (30 °C) -3.07 ± 0.11; (37 °C) -2.48 ± 0.16. The matching figures for CGCUAGCAAUAUUACGUUGU: -3.3 ± 0.2 and -1.59 ± 0.18. For UAAAAGCAAUAUUACGGCAA, in that order: -0.166 ± 0.1 and -0.176 ± 0.1. The matching figures for AUAUAGCAAUAUUACGCUGU: -2.9 ± 0.22 and -2.32 ± 0.21. AUUGAGCAAUAUUACGCGUU: the “self-splicing fitness (ln)” value (30 °C) is -3.02 ± 0.26 and the “self-splicing fitness (ln)” value (37 °C) was -2.34 ± 0.23.

As to CGCAAGCAAUAUUACGAGCA, the “self-splicing fitness (ln)” value was -0.102 ± 0.1 (30 °C) and 0.368 ± 0.14 (37 °C). As for UCAGAGCAAUAUUACGGACG, the “self-splicing fitness (ln)” value runs as follows: (30 °C) -3.67 ± 0.44; (37 °C) -1.58 ± 0.2. Take GCAGAGCAAUAUUACGGUUC: the “self-splicing fitness (ln)” value is -2.66 ± 0.28 (30 °C) and -1.58 ± 0.24 (37 °C). The matching figures for CCAAAGCAAUAUUACGUAUA: -4.79 ± 0.32 and -2.3 ± 0.14. With UGCCAGCAAUAUUACGCGAU, the “self-splicing fitness (ln)” value was -2.42 ± 0.17 (30 °C) and -1.88 ± 0.23 (37 °C).
